Assay results as given in the supplement of paper PMC7125110.
± gives the standard error. Variants at the floor of the assay were thinned out.

B1: glmS ribozyme (parent)
chain: AUAAAAGCGCCAGAACUACAGAAAUGUAGUUGACGAGGAGGAGGUUUAUCGAAUUUUCGGCGGAUGCCUCCAAA

Assays:
Conditions in all cases: with glucosamine-6-phosphate
glucosamine-6-phosphate [1] = variants of: B1; assay: self-cleavage kobs at 160 uM GlcN6P; higher = faster cleavage; RNA array
In short: (§1)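 Glucosamine-6-phosphate (40 μM to 10 mM) in HEPES/KCl/Mg(OAc)2 buffer was flowed over sequenced MiSeq chips, and tiles were imaged over ~14 h. Barcoded ribozyme variants there had been transcribed in situ by E. coli RNA polymerase and were tracked through a hybridised Cy3 probe at 37 °C. One- or two-exponential decay fits to per-tile medians, normalised to baseline and to non-cleaving reference variants, gave kobs. kcat and KM came from weighted Michaelis–Menten fits across concentrations.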

glucosamine-6-phosphate [2] = variants of: B1; assay: self-cleavage kobs at 640 uM GlcN6P; higher = faster cleavage; RNA array
In short: as §1

glucosamine-6-phosphate [3] = variants of: B1; assay: self-cleavage kobs at 2500 uM GlcN6P; higher = faster cleavage; RNA array
In short: as §1

glucosamine-6-phosphate [4] = variants of: B1; assay: self-cleavage kobs at 10000 uM GlcN6P; higher = faster cleavage; RNA array
In short: as §1

Variant | self-cleavage kobs at 160 uM GlcN6P (glucosamine-6-phosphate [1]) [s⁻¹] | self-cleavage kobs at 640 uM GlcN6P (glucosamine-6-phosphate [2]) [s⁻¹] | self-cleavage kobs at 2500 uM GlcN6P (glucosamine-6-phosphate [3]) [s⁻¹] | self-cleavage kobs at 10000 uM GlcN6P (glucosamine-6-phosphate [4]) [s⁻¹]
C10G A42G G44C A53G G60U | < 1e-05 | < 1e-05 |  | 
C8G U57G | < 1e-05 | < 1e-05 | < 1e-05 | 
C8A G44C C68A C71G | < 1e-05 |  |  | 
G9C G32C A33C A39G C61A | < 1e-05 |  | < 1e-05 | 
C8U U55A | < 1e-05 | < 1e-05 | < 1e-05 | 
C11A C50G C61U | 0.000476 ± 0.00011 | 0.000601 ± 0.00018 |  | 
C10U A33C G43U G44A C67G | < 1e-05 | < 1e-05 | < 1e-05 | 
G9U C34G G40C A48U C61U | < 1e-05 |  |  | 
G9A C11G A12G A15U C16A U30C G32A A48G G59U G60U | < 1e-05 |  | < 1e-05 | 
C10G G43U C50A | < 1e-05 |  | < 1e-05 | 
C8G G13U G43A U46G C50U | < 1e-05 | < 1e-05 |  | 
C11U A39U U49G | < 1e-05 | < 1e-05 | < 1e-05 | 
C10A A39U U69G | < 1e-05 | < 1e-05 | < 1e-05 | 
C10A C70A | 6.28e-05 ± 1.3e-05 | 0.000194 ± 3.9e-05 | 6.82e-05 ± 1.9e-05 | 
C10A C34U U55G | < 1e-05 |  | < 1e-05 | 
C8G G38A A48U C61U | < 1e-05 |  |  | 
C11A A39U C61U C70G | < 1e-05 | < 1e-05 | < 1e-05 | 
C10U G62C | < 1e-05 |  | < 1e-05 | < 1e-05
G9A A36G C67U | < 1e-05 |  |  | 
C10A G41U C68G | < 1e-05 |  | < 1e-05 | 
G7U A15U G51U C61U C67G | < 1e-05 | < 1e-05 |  | 
C8U G35A U49C A64C C71A | < 1e-05 |  |  | 
G9U C19A | < 1e-05 |  |  | 
C11G G32A G59C | < 1e-05 | < 1e-05 |  | 
C11G C67U | < 1e-05 | < 1e-05 | < 1e-05 | 
G7U A33C C67A C68U | < 1e-05 |  | < 1e-05 | 
C8U G35A G43U | < 1e-05 | < 1e-05 | < 1e-05 | 
G9C C34A | < 1e-05 | < 1e-05 | < 1e-05 | 
